Laboratory results published in publication PMC12236258.

Target: SpyCatcher003-A49C labelled with Alexa 555 maleimide
Assay: FRET or BRET; inline mixing cell, SpyTag003-sfGFP (donor) and SpyCatcher003-AF555 (acceptor) each at 10 uM, equimolar, delays 0.02-10 s, emission at 515 nm, double exponential fit; observed rates at one concentration

## SpyTag003-sfGFP
  fast rate of the double exponential FRET decay (observed, 10 uM each): 143 s⁻¹
  percent reduction of the donor fluorescence by FRET (20 ms to 10 s after mixing): > 50%
  slow rate of the double exponential FRET decay (observed, 10 uM each): 7 s⁻¹
